The assay concerns the target TRPV1-CT44 (TRPV1 C-terminal residues 759–802) (rat) (UniProt O35433). Put plainly: other fluorescence titration.

In general, stoichiometry N refers to the number of molecules, sites or subunits per partner or assembly.

TRPV1-CT44 (TRPV1 C-terminal residues 759–802) (rat), sequence (O35433 759-802): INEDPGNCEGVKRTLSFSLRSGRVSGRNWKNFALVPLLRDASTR

The substance “calmodulin (CaM), wild type (from UniProt P0DP23 1-149) (natural protein)” returned a stoichiometry N of 1.
